Test results as given in patent publication US9745556B2, “Variants of glycerol dehydrogenase having D-lactate dehydrogenase activity and uses thereof” (UNIVERSITY OF FLORIDA RESEARCH FOUNDATION, INC., priority 2011, dated 2017).
Numbering of substitutions follows the chain as printed. Numbers in names are those of the source.

Key:
[1] = molecular target: T1, Bacillus coagulans glycerol dehydrogenase (GlyDH/GDH, native SEQ ID NO: 3) variant D121N (Heyndrickxia coagulans, UniProt A0AAN0T381, D121N); test: Kinetic properties of mutated glycerol dehydrogenase D121N; type: biochemical; conditions: D121N alone; compared to native enzyme; in words
T1 sequence (A0AAN0T381 1-367 D121N): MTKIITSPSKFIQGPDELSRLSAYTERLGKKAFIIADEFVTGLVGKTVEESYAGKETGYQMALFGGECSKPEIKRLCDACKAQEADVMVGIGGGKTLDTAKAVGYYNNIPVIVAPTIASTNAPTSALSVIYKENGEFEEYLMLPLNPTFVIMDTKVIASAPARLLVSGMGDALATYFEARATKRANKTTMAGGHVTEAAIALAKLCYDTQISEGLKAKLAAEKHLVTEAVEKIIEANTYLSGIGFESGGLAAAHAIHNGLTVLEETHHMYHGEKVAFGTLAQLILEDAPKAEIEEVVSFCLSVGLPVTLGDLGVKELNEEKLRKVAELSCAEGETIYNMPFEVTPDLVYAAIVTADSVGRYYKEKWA
Method: (§1) Cultures were grown (LB-glucose medium in pH-controlled fermenters) to mid-exponential phase, harvested, and used for enzyme assays as previously described (23). Glycerol dehydrogenase from strain QZ19 was purified using differential ammonium sulfate precipitation followed by anion-exchange and hydrophobic interaction chromatography. GlyDH and GlyDH* were also purified as N-terminal His-tagged enzymes (33). GlyDH and LDH were assayed using standard methods (34, 35).
(§2) During the development of a D-lactate producing B. coagulans derivative (strain QZ19), a glycerol dehydrogenase (GDH) with two mutations (D121N and F245S) evolved to catalyze the reduction of pyruvate to D-lactate (Table 1 and FIG. 7). The first derivative that produced a significant D-lactate titer, strain QZ15, carried a single mutation that changed the amino acid phenylalanine at position 245 to serine. As strain QZ15 was further selected for higher lactate productivity, the GDH protein acquired a second mutation in amino acid position 121 (D121N) (FIG. 15). Combination of these two mutations led strain QZ19 to produce D-lactic acid at a titer close to 100 g/L in 48 hours at pH 5.0 and 50° C. in pH-controlled fermentations. In order to evaluate the role of each of these two mutations in the catalysis of pyruvate reduction to D-lactate, GDH/LDH enzyme with either of the two substitutions (D121N or F245S) and the protein with both changes were expressed in E. coli, purified, and their biochemical properties were determined.

[2] = molecular target: Bacillus coagulans glycerol dehydrogenase (GlyDH/GDH), native, strain P4-102B, SEQ ID NO: 3 (Heyndrickxia coagulans, UniProt A0AAN0T381); type: biochemical; conditions: native enzyme
Method: as §1
as §2, with “Combination of these two mutations led strain QZ19 to produce D-lactic acid at a titer close to 100 g/L in 48 hours at pH 5.0 and 50° C. in pH-controlled fermentations.” left out

OCC(O)CO [3] = test: Kinetic properties of mutated glycerol dehydrogenase D121N; type: biochemical, Bacillus coagulans; conditions: other: D121N, 55° C., pH 5.0
Method: as §1, §2

CC(=O)C(=O)O [4] = test: as above; type: biochemical, Bacillus coagulans; conditions: other: D121N, 55° C., pH 5.0
Method: as §1, §2

C[C@@H](O)C(=O)O = test: as above; type: biochemical, Bacillus coagulans; conditions: other: D121N, 55° C., pH 5.0
Method: as §1, §2

OCC(O)CO [5] = test: Kinetic properties of mutated glycerol dehydrogenase F245S; type: biochemical, Bacillus coagulans; conditions: other: F245S, 55° C., glycerol oxidation, pyruvate reduction or lactate oxidation, pH 5.0
Method: as §1, §2

CC(=O)C(=O)O [6] = test: as above; type: biochemical, Bacillus coagulans; conditions: other: F245S, 55° C., pH 5.0
Method: as §1, §2

[7] = substrate: CC(=O)C(=O)O; test: purified protein, by the assay type; conditions: other: enzyme with both changes; pH 5.0; 50.0 °C
[8] = substrate: OCC(O)CO; test: purified protein, by the assay type; conditions: other: column head, D121N; 55° C.; pH 5.0; 55.0 °C
[9] = substrate: NC(=O)C1=CN([C@@H]2O[C@H](COP(=O)(O)OP(=O)(O)OC[C@H]3O[C@@H](n4cnc5c(N)ncnc54)[C@H](O)[C@@H]3O)[C@@H](O)[C@H]2O)C=CC1; test: purified protein, by the assay type; conditions: other: Native, 55° C., glycerol oxidation, pyruvate reduction or lactate oxidation, pH 5.0
[10] = substrate: OCC(O)CO; test: purified protein, by the assay type; type: biochemical, Bacillus coagulans; conditions: other: Native, 55° C., glycerol oxidation, pyruvate reduction or lactate oxidation, pH 5.0
Method: as §1
as §2, with “Combination of these two mutations led strain QZ19 to produce D-lactic acid at a titer close to 100 g/L in 48 hours at pH 5.0 and 50° C. in pH-controlled fermentations.” left out

Chain of Bacillus coagulans glycerol dehydrogenase (GlyDH/GDH), native, strain P4-102B, SEQ ID NO: 3 (A0AAN0T381 entry or part of it): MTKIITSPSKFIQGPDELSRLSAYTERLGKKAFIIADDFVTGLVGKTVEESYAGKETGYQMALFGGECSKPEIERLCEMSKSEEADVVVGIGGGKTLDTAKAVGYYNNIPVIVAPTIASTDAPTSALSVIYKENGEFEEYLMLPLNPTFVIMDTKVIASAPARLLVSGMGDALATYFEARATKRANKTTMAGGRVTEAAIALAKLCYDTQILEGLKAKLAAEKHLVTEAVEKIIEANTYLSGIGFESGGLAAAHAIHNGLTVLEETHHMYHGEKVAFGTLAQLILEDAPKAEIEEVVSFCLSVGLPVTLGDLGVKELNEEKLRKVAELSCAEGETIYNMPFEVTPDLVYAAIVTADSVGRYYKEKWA

`OCC(O)CO` [Glycerol] was tested, and the “change in apparent Km for glycerol” value [1] was “slight increase” and the “efficiency at oxidizing glycerol with NAD^+ relative to reducing pyruvate using NADH” value [2] was “about 1,000 times”.

With “Bacillus coagulans glycerol dehydrogenase (GlyDH/GDH, native SEQ ID NO: 3) variant D121N (Heyndrickxia coagulans; D121N)” the kcat (OCC(O)CO [3]) was 13.2 s⁻¹, the kcat/Km (OCC(O)CO [3]) was 100 M⁻¹ s⁻¹ and the kcat (CC(=O)C(=O)O [4]) was 2.0 s⁻¹. For the same molecule, the kcat/Km (CC(=O)C(=O)O [4]) was 3 M⁻¹ s⁻¹, the kcat (C[C@@H](O)C(=O)O) was 1.9 s⁻¹ and the kcat/Km (C[C@@H](O)C(=O)O) was 8 M⁻¹ s⁻¹.

With “Bacillus coagulans glycerol dehydrogenase (GlyDH/GDH, native SEQ ID NO: 3) variant F245S (Heyndrickxia coagulans; F245S)” the kcat (OCC(O)CO [5]) was 62.5 s⁻¹, the kcat/Km (OCC(O)CO [5]) was 800 M⁻¹ s⁻¹ and the kcat (CC(=O)C(=O)O [6]) was 19.5 s⁻¹. The kcat/Km (CC(=O)C(=O)O [6]) was 80 M⁻¹ s⁻¹.

B1: Bacillus coagulans glycerol dehydrogenase (GlyDH/GDH, native SEQ ID NO: 3) variant F245S, D121N (GlyDH*, strain QZ19, SEQ ID NO: 1) (Heyndrickxia coagulans; … (protein)
chain: MTKIITSPSKFIQGPDELSRLSAYTERLGKKAFIIADDFVTGLVGKTVEESYAGKETGYQMALFGGECSKPEIERLCEMSKSEEADVVVGIGGGKTLDTAKAVGYYNNIPVIVAPTIASTNAPTSALSVIYKENGEFEEYLMLPLNPTFVIMDTKVIASAPARLLVSGMGDALATYFEARATKRANKTTMAGGRVTEAAIALAKLCYDTQILEGLKAKLAAEKHLVTEAVEKIIEANTYLSGIGSESGGLAAAHAIHNGLTVLEETHHMYHGEKVAFGTLAQLILEDAPKAEIEEVVSFCLSVGLPVTLGDLGVKELNEEKLRKVAELSCAEGETIYNMPFEVTPDLVYAAIVTADSVGRYYKEKWA
Work on B1 yielded a Km [7] of 51000 µM, a kcat [8] of 16.7 s⁻¹ and a kcat/Km [8] of 100 M⁻¹ s⁻¹.

B2: Bacillus coagulans glycerol dehydrogenase (GlyDH/GDH), native, strain P4-102B, SEQ ID NO: 3 (Heyndrickxia coagulans) (protein)
chain: B1 chain with N121D, S245F
Work on B2 yielded a Km [9] of 400 µM, a kcat [10] of 28.0 s⁻¹ and a kcat/Km [10] of 2400 M⁻¹ s⁻¹.
